Values of other authors as cited in EP3074407B1, “COMPOUND AND METHOD FOR SELECTIVE RADIOLABELLING OF POLYPEPTIDES BY MEANS OF SOLID-PHASE SYNTHESIS” (Freie Universität Berlin, priority 2013, dated 2015).

Columns and labels:
[1] = literature (Breeman et al. 1996); cited from earlier work
[2] = PET, Menschen, Primaten und Nagetieren; cited from earlier work

| Molecule | Durchlässigkeit der Blut-Hirn-Schranke [1] | Aufnahme im Gehirn [2] |
| --- | --- | --- |
| [indium111-DTPA-Argl]substance P [In^111 markierten Substanz P-Agonisten] | undurchlässig |  |
| FC(F)(F)c1nnnn1-c1ccc(OC[18F])c(CN[C@H]2CCCN[C@H]2c2ccccc2)c1 [18F-SPA-RQ] |  | hohe Aufnahme |
